The RNAGym collection of RNA variant scans (doi:10.7554/elife.90254)

B1: OR4K15 (parent)
chain: GUUAACGGUCAUAGGCCAUGGAAACUAGGAGCACCAUUUCGCUGCCAGUGAAGAAAUGAACAAAGAAAAUCUGGGCCAGGCAGGCAUCAAAAGAAAUAGUCUUGCGCUCAACCAGAAAGUCUGUAAUCAUUUUAAGGGUA

Variants of: B1
Test: self-cleavage, relative activity (ratio to wild type); higher = more cleavage; in vitro, sequencing; the parent is a self-cleaving ribozyme

| Variant | self-cleavage |
| --- | --- |
| U26A A54C | 1.61 |
| U72A A98G | 0.04 |
| U49G A51G | 0.95 |
| A78G A117C | 0.22 |
| A96G U127C | 0.58 |
| U131C U133A | 0.91 |
| U100C U139C | 2.29 |
| A13G A126U | 0.88 |
| U26A A59G | 1.18 |
| A69G A118U | 0.56 |
| A118G A126C | 0.84 |
| A22G A91C | 1.93 |
| A56G G136A | 1.69 |
| U43G A54U | 1.97 |
| U9A A78U | 0.15 |
| A52G A135G | 1.44 |
| A125G U133C | 1.09 |
| A5U C109U | 0.68 |
| A18U C85U | 1.37 |
| U72C A90G | 0.54 |
| A59G A86C | 0.64 |
| U12C A135G | 1.25 |
| A63G A89G | 1.89 |
| A89G A110U | 0.77 |

| Variant | self-cleavage |
| --- | --- |
| G106U | 0.01 |
| A13U A111G | 0.03 |
| G48A A63G | 0.93 |
| C16U G73A | 0.15 |
| A91G U97A | 1.05 |
| A63C U131C | 1.99 |
| A62U | 1.53 |
| U9A C32U | 1.2 |
| C112U U132C | 0.01 |
| A33U U39C | 1.56 |
| A27U A59U | 1.64 |
| A47U A52U | 1.2 |
| A69G U130G | 1.3 |
| A24G G136C | 1.47 |
| A63G A110G | 0.15 |
| U38A U132C | 1.58 |
| A54G G93A | 1.21 |
| A52G C121G | 2.33 |
| A30G A64C | 1.38 |
| C17A A78G | 0.1 |
| A59G A86U | 1.71 |
| A68G A118G | 0.77 |
| A24G U122C | 0.84 |
| U103A A126G | 0.34 |

| Variant | self-cleavage |
| --- | --- |
| U108A G123A | 0.01 |
| A11G C105U | 0.09 |
| U3A A89G | 1.51 |
| C17A U19C | 0.87 |
| A59G A111G | 0.02 |
| U70C C113U | 0.02 |
| A23U U132C | 1.03 |
| A52C A62G | 0.91 |
| A111G U132A | 0.02 |
| A4U | 1.19 |
| A27G A118U | 0.36 |
| A56G C113U | 0.08 |
| A117G A140G | 1.68 |
| A22U G83A | 0.93 |
| A11G G136U | 1.19 |
| A5G A140G | 0.77 |
| U49C U108C | 0.01 |
| U3C U122C | 1.32 |
| U38G A96G | 0.69 |
| A4G A18G | 1.23 |
| A27G U97A | 1.24 |
| A56C A78U | 0.35 |
| A56G C109A | 0.34 |
| U43C U100A | 0.67 |

| Variant | self-cleavage |
| --- | --- |
| A90G A111G | 0.02 |
| C85U U108C | 0.04 |
| U19A U39C | 0.99 |
| A4G A86U | 0.95 |
| A92C U132C | 1.05 |
| A36U A82G | 0.39 |
| A82C A116G | 0.09 |
| U3C A5G | 1 |
| A4G A55U | 1.33 |
| C61U U132C | 1.89 |
| A55G A68G | 1.23 |
| U100G | 1.24 |
| U19C G28A | 1.41 |
| C16U A118G | 1.16 |
| U26C A111G | 0.03 |
| A11G A69U | 1 |
| U12A U72A | 0.36 |
| A4U A140U | 1.5 |
| G31A U103C | 0.46 |
| U97A U139A | 1.2 |
| A92G U127C | 0.9 |
| A11C U97C | 1.26 |
| A4G U131C | 1.45 |
| U2C U26G | 0.72 |

| Variant | self-cleavage |
| --- | --- |
| U12C A30U | 1.21 |
| U39C U70C | 0.95 |
| A60U A69G | 1.51 |
| A47G A62U | 1.22 |
| U9C C40U | 1.45 |
| U12A A78G | 0.2 |
| A5G U70A | 0.75 |
| G84U U130C | 0.28 |
| G53A A54U | 1.67 |
| A52U A98U | 1.72 |
| A30G A60G | 0.96 |
| A51C A92U | 0.57 |
| A22G C42A | 0.91 |
| U38C A60G | 1.44 |
| A11G C85A | 1.53 |
| A59G A126U | 1.27 |
| U37A U102C | 1.85 |
| A11U A116U | 0.5 |
| A60G G136C | 0.72 |
| A54G A114C | 0.09 |
| A22G U87C | 1.28 |
| A5C A126G | 1.54 |
| A5U U124C | 0.99 |
| A11G C32G | 0.61 |

| Variant | self-cleavage |
| --- | --- |
| A23G U43A | 0.88 |
| A52G A94G | 1.99 |
| A94G A95U | 2.66 |
| A51G A129U | 0.76 |
| A51G G80A | 0.36 |
| U57A A62U | 2.46 |
| A55U U100A | 0.82 |
| A47G C81U | 0.25 |
| A23G A51G | 1.33 |
| U57A A98U | 1.47 |
| U43C A59G | 0.68 |
| A67G G93U | 1.17 |
| G20A U132C | 1.92 |
| A36G A92G | 1 |
| A30G U97C | 1.23 |
| U131A G138C | 1.83 |
| G21C A118G | 1.14 |
| A47C U97C | 0.33 |
| U133C A134G | 0.26 |
| U49A A82U | 0.18 |
| G41A U43A | 1.69 |
| A13U A129U | 0.73 |
| A24U U97G | 1.9 |
| C88U U139A | 1.67 |

| Variant | self-cleavage |
| --- | --- |
| C61U U133C | 1.21 |
| A63U U130C | 0.28 |
| A51U A114G | 0.19 |
| A69G G73U | 0.33 |
| C46U A96G | 2.13 |
| U9C A117U | 1.04 |
| U57C A91G | 0.84 |
| G15A A24G | 1.4 |
| U3C A96G | 1.3 |
| A56G A90C | 0.21 |
| C45U A96U | 1.55 |
| A56G U120A | 1.19 |
| U12A U131C | 2.37 |
| A47C A114G | 0.3 |
| A64C C105U | 0.17 |
| U43A A91G | 0.55 |
| A11G U132C | 1.21 |
| A55G A110G | 0.12 |
| A47U U102C | 1.92 |
| G50U A56G | 1.63 |
| A13U C34U | 1.2 |
| A78G G106U | 0.01 |
| A98G A117G | 0.81 |
